Measurements reported in paper PMC9352680, “A comprehensive thermodynamic model for RNA binding by the Saccharomyces cerevisiae Pumilio protein PUF4”.

T1: PUF4 RNA-binding domain (Saccharomyces cerevisiae, UniProt P25339 537-888)
T1 sequence: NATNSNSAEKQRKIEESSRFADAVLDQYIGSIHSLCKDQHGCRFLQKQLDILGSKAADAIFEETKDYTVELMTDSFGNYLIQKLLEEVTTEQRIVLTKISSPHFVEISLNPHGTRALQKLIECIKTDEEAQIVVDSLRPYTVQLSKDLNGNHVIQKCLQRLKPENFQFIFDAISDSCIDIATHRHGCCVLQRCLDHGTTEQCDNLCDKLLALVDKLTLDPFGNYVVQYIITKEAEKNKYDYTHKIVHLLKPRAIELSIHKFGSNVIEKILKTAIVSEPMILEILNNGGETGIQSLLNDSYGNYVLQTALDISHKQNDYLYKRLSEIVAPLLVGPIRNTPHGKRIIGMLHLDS


Target: T1, PUF4 RNA-binding domain
Test: Mg; RNA-MaP; 20 mM Na-HEPES pH 7.4, 30 mM KOAc, 0.75 mM MgCl2, 0.1% Tween-20, 5% glycerol, 0.1 mg/mL BSA, 2 mM DTT; 25 C; 0.0125-409.6 nM protein
Settings: tags: N-His6-TEV cleaved; C-SNAP kept, Cy3B-labelled; label: tethered on chip by stalled RNA polymerase

| Binder | Kd [nM] |
| --- | --- |
| UCUCUUUGUAGUGUUUCUCUU (ssRNA) [Ic_S1_P4E.1_K4.1_C4.1_H4.1_A4.1_[T5G]_[A6T]_[T7G]_F4.1_[A9T]_T4.1] | 736 |
| UCUCUUUGUAGCUUGUCUCUU (ssRNA) [Ic_S1_P4E.1_K4.1_C4.1_H4.1_A4.1_[T5G]_[A6C]_F4.1_[A9G]_T4.1] | 1590 |
| UCUCUUUGUAUACCUCUCUU (ssRNA) [Ic_S1_P3E.1_K3.1_C3.1_H3.1_A3.1_F3.1_[T7C]_[A8C]_T3.1] | 48.9 |
| UCUCUUUGUAGUCGUUCUCUU (ssRNA) [Ic_S1_P4E.1_K4.1_C4.1_H4.1_A4.1_[T5G]_[A6T]_[T7C]_F4.1_[T8G]_[A9T]_T4.1] | 1600 |
| UCUCUUUGUAGCAUCUCUCUU (ssRNA) [Ic_S1_P4E.1_K4.1_C4.1_H4.1_A4.1_[T5G]_[A6C]_[T7A]_F4.1_[A9C]_T4.1] | 398 |
| UCUCUUUGUAGCUGCUCUCUU (ssRNA) [Ic_S1_P4E.1_K4.1_C4.1_H4.1_A4.1_[T5G]_[A6C]_F4.1_[T8G]_[A9C]_T4.1] | 2070 |
| UCUCUUUGUAGUGUAUCUCUU (ssRNA) [Ic_S1_P4E.1_K4.1_C4.1_H4.1_A4.1_[T5G]_[A6T]_[T7G]_F4.1_T4.1] | 52.3 |
| UCUCUUUGUAGCAAUUCUCUU (ssRNA) [Ic_S1_P4E.1_K4.1_C4.1_H4.1_A4.1_[T5G]_[A6C]_[T7A]_F4.1_[T8A]_[A9T]_T4.1] | 857 |
| UCUCUUUGUAGCAAAUCUCUU (ssRNA) [Ic_S1_P4E.1_K4.1_C4.1_H4.1_A4.1_[T5G]_[A6C]_[T7A]_F4.1_[T8A]_T4.1] | 833 |
| UCUCUUUGUAGCACGUCUCUU (ssRNA) [Ic_S1_P4E.1_K4.1_C4.1_H4.1_A4.1_[T5G]_[A6C]_[T7A]_F4.1_[T8C]_[A9G]_T4.1] | > 2300 |
| UCUCUUUGUAGUGUGUCUCUU (ssRNA) [Ic_S1_P4E.1_K4.1_C4.1_H4.1_A4.1_[T5G]_[A6T]_[T7G]_F4.1_[A9G]_T4.1] | 575 |
| UCUCUUUGUAGCUUUUCUCUU (ssRNA) [Ic_S1_P4E.1_K4.1_C4.1_H4.1_A4.1_[T5G]_[A6C]_F4.1_[A9T]_T4.1] | 361 |
| UCUCUUUGUAGUGCUUCUCUU (ssRNA) [Ic_S1_P4E.1_K4.1_C4.1_H4.1_A4.1_[T5G]_[A6T]_[T7G]_F4.1_[T8C]_[A9T]_T4.1] | > 2300 |
| UCUCUUUGUAGCACAUCUCUU (ssRNA) [Ic_S1_P4E.1_K4.1_C4.1_H4.1_A4.1_[T5G]_[A6C]_[T7A]_F4.1_[T8C]_T4.1] | 1440 |
| UCUCUUUGUAGUGUCUCUCUU (ssRNA) [Ic_S1_P4E.1_K4.1_C4.1_H4.1_A4.1_[T5G]_[A6T]_[T7G]_F4.1_[A9C]_T4.1] | 1370 |
| UCUCUUUGUAGCCUAUCUCUU (ssRNA) [Ic_S1_P4E.1_K4.1_C4.1_H4.1_A4.1_[T5G]_[A6C]_[T7C]_F4.1_T4.1] | 34.3 |
| UCUCUUUGUAGCAGCUCUCUU (ssRNA) [Ic_S1_P4E.1_K4.1_C4.1_H4.1_A4.1_[T5G]_[A6C]_[T7A]_F4.1_[T8G]_[A9C]_T4.1] | > 2300 |
| UCUCUUUGUAGCUUCUCUCUU (ssRNA) [Ic_S1_P4E.1_K4.1_C4.1_H4.1_A4.1_[T5G]_[A6C]_F4.1_[A9C]_T4.1] | 612 |
| UCUCUUUGUAGUCGCUCUCUU (ssRNA) [Ic_S1_P4E.1_K4.1_C4.1_H4.1_A4.1_[T5G]_[A6T]_[T7C]_F4.1_[T8G]_[A9C]_T4.1] | > 2300 |
| UCUCUUUGUAGCACUUCUCUU (ssRNA) [Ic_S1_P4E.1_K4.1_C4.1_H4.1_A4.1_[T5G]_[A6C]_[T7A]_F4.1_[T8C]_[A9T]_T4.1] | 949 |
| UCUCUUUGUAGUCGGUCUCUU (ssRNA) [Ic_S1_P4E.1_K4.1_C4.1_H4.1_A4.1_[T5G]_[A6T]_[T7C]_F4.1_[T8G]_[A9G]_T4.1] | > 2300 |
| UCUCUUUGUAGCAACUCUCUU (ssRNA) [Ic_S1_P4E.1_K4.1_C4.1_H4.1_A4.1_[T5G]_[A6C]_[T7A]_F4.1_[T8A]_[A9C]_T4.1] | 1210 |
| UCUCUUUGUAGCUCUUCUCUU (ssRNA) [Ic_S1_P4E.1_K4.1_C4.1_H4.1_A4.1_[T5G]_[A6C]_F4.1_[T8C]_[A9T]_T4.1] | 2020 |
| UCUCUUUGUAGCAUUUCUCUU (ssRNA) [Ic_S1_P4E.1_K4.1_C4.1_H4.1_A4.1_[T5G]_[A6C]_[T7A]_F4.1_[A9T]_T4.1] | 32.4 |
| UCUCUUUGUAGCCUUUCUCUU (ssRNA) [Ic_S1_P4E.1_K4.1_C4.1_H4.1_A4.1_[T5G]_[A6C]_[T7C]_F4.1_[A9T]_T4.1] | 679 |
| UCUCUUUGUAGCAGUUCUCUU (ssRNA) [Ic_S1_P4E.1_K4.1_C4.1_H4.1_A4.1_[T5G]_[A6C]_[T7A]_F4.1_[T8G]_[A9T]_T4.1] | 1440 |
| UCUCUUUGUAUACUUCUCUU (ssRNA) [Ic_S1_P3E.1_K3.1_C3.1_H3.1_A3.1_F3.1_[T7C]_[A8T]_T3.1] | 5.59 |
| UCUCUUUGUAGUGCCUCUCUU (ssRNA) [Ic_S1_P4E.1_K4.1_C4.1_H4.1_A4.1_[T5G]_[A6T]_[T7G]_F4.1_[T8C]_[A9C]_T4.1] | > 2300 |
